For experiment [1], the target named is HLA class II antigens (HLA-DR, HLA-DQ and HLA-DP). In words: Luminex, each Labscreen Mixed class II bead type, antibody at 2 µg/ml; SD approximately 700.
Experiment [2] shares this target. In words: Luminex dose/response, mean over 5 class II bead types, antibody 3.13 × 10^-2 µg/ml; SD 273.56.
For experiment [3] the target is unchanged. In words: Luminex dose/response, mean over 5 class II bead types, antibody 5 × 10^-4 µg/ml; SD 29.6.
The target is the same in experiment [4]. In words: Luminex titration on Labscreen Mixed class II beads; concentration at 50% of (MAX - MIN).
For experiment [5] the target is unchanged. Description: Luminex dose/response, mean over 5 class II bead types; SD 298.79.
Experiment [6] has the same target. In words: Boltzmann sigmoid fit of the Luminex titration curve, upper asymptote.
Experiment [7] shares this target. In words: Luminex dose/response, mean over 5 class II bead types, antibody 7.8 × 10^-3 µg/ml; SD 145.09.
The target is the same in experiment [8]. Description: Luminex dose/response, mean over 5 class II bead types, antibody 2 × 10^0 µg/ml; SD 167.
For experiment [9] the target is unchanged. In words: Luminex dose/response, mean over 5 class II bead types, antibody 5 × 10^-1 µg/ml; SD 160.45.
Experiment [10] shares this target. Description: Boltzmann sigmoid fit of the Luminex titration curve, lower asymptote.
Experiment [11] shares this target. Description: Luminex dose/response, mean over 5 class II bead types, antibody 2 × 10^-3 µg/ml; SD 72.15.

By EC50 is commonly meant the concentration that produces a half-maximal response. Lower therefore signals higher potency in that assay.

B1: monoclonal chimeric immunoglobulin Hu-IgG1 K [F3.3] (antibody, V domains shown)
VH: EVKLEESGGGLVQPGGSMKLSCVASGFTFSNSWMNWVRQSPEKGLEWVAEIRLKSNNYATRYAESVKGRFTISRDDSKSSVYLQMNNLRSEDTAIYYCTPLSYSFDYWGQGTTVTVST
VL: QIVLTQSPAIMSASPGEKVTMTCSASSIVRYMYWFQQKPGSSPRLLIYDTSSLSSGVPVRFSGSGSGTSYSLTISRMEAEDAATYFCQQWSSYPLTFGGGTKLEIKR
Take B1: the fluorescence (average fluorescence units) in [1] came to 22000. The Average (fluorescence intensity) (fluorescence units) in [2] stood at 9130; in [3], 316; in experiment [5] it was 18000; in [7] it was 3520; in [8], 23600; in experiment [9], 22800. Besides, the Average (fluorescence intensity) (fluorescence units) in experiment [11] came to 1090. The EC50 in experiment [4] stood at 0.05 µg/mL. In experiment [6], this molecule gave an MAX (fluorescence units) of 24600. In [10], this molecule displayed an MIN (fluorescence units) of 88.

The values above are taken from US10705076.
